Reference: article PMC7552008

How the values were obtained:
[1] = molecular target: NS1 RBD H5N1 (Influenza A virus (H5N1; allele A)) (UniProt Q5H7J4); assay: competition EMSA
[2] = molecular target: NS1 RBD H3N2 (Influenza A virus (H3N2)) (UniProt I6T1Z2); assay: EMSA
[3] = molecular target: NS1 RBD H5N1 (Influenza A virus (H5N1; allele A)) (UniProt Q5H7J4); assay: EMSA
[4] = test system: NS1 RBD pdmH1N1 (Influenza A virus (pandemic H1N1)); assay: EMSA
[5] = molecular target: T1, NS1 RBD H7N1 (Influenza A virus (avian H7N1; allele B)) (UniProt Q1PST0); assay: competition EMSA
T1 sequence: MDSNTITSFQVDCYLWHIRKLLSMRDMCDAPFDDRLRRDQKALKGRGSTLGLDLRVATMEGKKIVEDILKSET

[6] = molecular target: wild type H7N1 NS1 RBD (RNA-binding domain of influenza A virus non-structural protein NS1, residues 1-73) (influenza A virus (avian H7N1)); assay: crystal structure

Row | Substance | IC50 [1] | IC50 [5] | also measured
1 | GGUAACUGUUACAGUUACC / GGUAACUGUUACAGUUACC [AWFC01] | 1 nM |  | Kd [2]: 3.7 nM; Kd [3]: 0.98 nM; Kd [4]: 2.05 nM
2 | GGUAACAACUCGUCAUAGGUCACUUGAUUGAAGUAUGACGGGCUGUUACC [DM03-midi] | 1.8 nM | 2.8 nM | 
3 | GGUAACUGUAGAGGAUGGAGAGAUCCAUCCUCUACAGUUACC [shDM06-GAGA] | 1.1 nM | 0.85 nM | 
4 | GGUAACUGUAGAGGUUACAGAGAUGUAACCUCUACAGUUACC [shDM02-GAGA] | 0.41 nM | 0.24 nM | 
5 | GGUAACCACAUGAGUUACAGCAAAAGACCUGUGUAACUCAUGCUGUUACC [DM01-midi] | 2.2 nM | 2.7 nM | 
6 | CGCCUGUGUAGAGGUUACAGAGAUGUAACCUCACCACAGGCG [shDM05-GAGA] | 100 nM |  | 
7 | AGACAGCAUUAUGCUGUCUUU / AGACAGCAUUAUGCUGUCUUU [ZKO] | 90 nM |  | 
8 | GGUAACUGUAGAGGUUACAGAGAUGUAACCUCACCAGUUACC [shDM03-GAGA] | 1.2 nM | 0.64 nM | 
9 | wild type H7N1 NS1 RBD (RNA-binding domain of influenza A virus non-structural protein NS1, residues 1-73) (domain or fragment) |  |  | stoichiometry N [6]: 2
